In article PMC8395244, “The Oxoglutarate Binding Site and Regulatory Mechanism Are Conserved in Ammonium Transporter Inhibitors GlnKs from Methanococcales” (International Journal of Molecular Sciences, 2021):

Experiments:
[1] = target: MtGlnK2 (GlnK isoform 2 from Methanothermococcus thermolithotrophicus), recombinant, N-terminally tagged (Methanothermococcus thermolithotrophicus); test: crystal structure; sitting drop at 18 °C; crystallised with or without 2 mM ATP, 2 mM 2OG and 2 mM MgCl2; solved by molecular replacement with PDB 2J9D
[2] = target: MtGlnK1 (GlnK isoform 1 from Methanothermococcus thermolithotrophicus), recombinant, N-terminally tagged (Methanothermococcus thermolithotrophicus); test: as above

Substance | stoichiometry N [1] | stoichiometry N [2]
MtGlnK2 (GlnK isoform 2 from Methanothermococcus thermolithotrophicus), recombinant, N-terminally tagged (natural protein) | 3 | –
MtGlnK1 (GlnK isoform 1 from Methanothermococcus thermolithotrophicus), recombinant, N-terminally tagged (natural protein) | – | 3
